Test results as given in the DeepSol protein solubility set.

assay: soluble on expression in E. coli; label from the status in PepcDB or PDB records

Row | Sequence | soluble on expression in E. coli
1 | MNNQKQQKPTLSGQRFKTRKRDEKERFDPTQFQDCIIQGLTETGTDLEAVAKFLDASGAKLDYRRYAETLFDILVAGGMLAPGGTLADDMMRTDVCVFAAQEDLETMQAFAQVFNKLIRRYKYLEKGFEDEVKKLLLFLKGFSESERNKLAMLTGVLLANGTLNASILNSLYNENLVKEGVSAAFAVKLFKSWINEKDINAVAASLRKVSMDNRLMELFPANKQSVEHFTKYFTEAGLKELSEYVRNQQTIGARKELQKELQEQMSRGDPFKDIILYVKEEMKKNNIHFMKAFQKIVVLFYKAEVLSEEPILKWYKDAHVAKGKSVFLEQMKKFVEWLKNAEEESESEAEEGD | not soluble
2 | MVICLSTEISLVAATLNEIGNIATFLDKVEKELIYYNFEIIIVDDNSSDGTKEYLAERSLKDKNLHVIENPYRVGMLGSLKMGINSAKGKYCIVMDADLQHPPEAILSIIERLNHGCDIVVGSRYVNGGSAGDRNSYRALLSIGAQYLSYLFLRSARSTTDPMSGFFGFQTSMNHDFSYKNRFKLTDMGAKILLLLLAENQNCNVCDVGYVFRSRERGKSKIVSGMSFLERYMSELLDAMIVERQWKNRGCLEHHHHHH | not soluble
3 | DIQMTQSPSTLSASIGDRVTITCRASEGIYHWLAWYQQKPGKAPKLLIYKASSLASGAPSRFSGSGSGTDFTLTISSLQPDDFATYYCQQYSNYPLTFGGGTKLEIKRTVAAPSVFIFPPSDEQLKSGTASVVCLLNNFYPREAKVQWKVDNALQSGNSQESVTEQDSKDSTYSLSSTLTLSKADYEKHKVYACEVTHQGLSSPVTKS | soluble
4 | MGESSGGGNSRQLQFSRKAGKGVVKTIHEYRSKPLRVGRKGEWRPAISDENRKLIRGVAEIIKIRPINVPDYAVVNPLGIMRQAYGTMVGGIANEPWSLESRKTIEEVVFLPIMDGEVRKGQLEHHHHHH | not soluble
5 | HMAKATTIKDAIRIFEERKSVVATEAEKVELHGMIPPIEKMDATLSTLKACKHLALSTNNIEKISSLSGMENLRILSLGRNLIKKIENLDAVADTLEELWISYNQIASLSGIEKLVNLRVLYMSNNKITNWGEIDKLAALDKLEDLLLAGNPLYNDYKENNATSEYRIEVVKRLPNLKKLDGMPVDVDEREQANVARGG | soluble
6 | FYGEKATLNDGKLTSAELSQMTISGEKHVTEEEFGYCTEYVLKLGMSVSQEVEKQKFNQKKFESKVSKIATSVVVASDKDNGFVKVHAHTEKPNLLLELGLNYGEFELVKIENMNLQVAKQKPAPVKRNIKPAIVVTVPTEAFADRIREDYDIQAILCTDDTGAPSVFSLLEAVKLTHSSNIIFLLHDKNYFLSANEALKQLKHQKISADCVMTTNPIESLAALTVFNSDLNIHTNVKTMRRFVKGFASATITQASKKYKENRIEVNKGDFIAVANNSICVSEKELVQCVFNTIDHLLKKVKKPEFLLAYYGKDITAEEAEAMKEKIEKKYKLFCEFSPGEQKVFSYILGIQ | soluble
7 | ATVKFKYKGEEKEVDISKIKKVWRVGKMISFTYDEGGGKTGRGAVSEKDAPKELLQMLEKQKK | soluble
8 | SMTIGRAKVYATLSKIFYHLFYDEAIPKDCREIIEKFGEIDFNLRSVLVRELRGSVLIKDMPQSLAEVYESVMKDFYERYGFQASELHADHIAVELAFMSKLVEREISLAQQMKEEELYKIRAAQHRFIKAHLQPLVKNLPSAPLLNFVRDFVREDAKYLYSSLVGEKNEGADNN | soluble
9 | MGSDKIHHHHHHMAAFQTAAQLARAVQSGETTPQQLLHGALARAEAVRGLNALVSLNSHAEEQAAAVQGRMQAGETLPLAGVPIVVKDNINVTGTRTTCGSRMLANYVSPYTATAAQKLQGAGAVIVGKANMDEFAMGSSTESSASGPTLNPWDHERVPGGSSGGSAVAVAAGISPVSLGSDTGGSVRQPAALCGVYGFKPTYGRVSRYGLVAYASSLDQIGPFARSAEDLALLMNVIAGHDPRDATSLDAPARFAVGGADSLRGLRVGVIRESLGGNTPGVEAALGATLDALRGAGAVVGEVSIPELEYAIAAYYLIAMPEASSNLARYDGMVYGERVPGGDVTRSMTLTREQGFGQEVQRRILLGTYALSSGYYDAYYAKAMKVRRLIADEFTTAFGQYDVLVTPTSPFPAFRRGEKASDPLAMYAADVDTVAVNLAGLPALSVPAGFEEVDGKRLPVGVQFIAPALQDERLLALAGALEAVGAVQLEMPQD | not soluble
10 | MSRTTPYRLDDQIGFILRQANQRYAALFANGIGNGLTPTQWAALVRLGETGPCPQNQLGRLTAMDAATIKGVVERLDKRGLIQRSADPDDGRRLLVSLSPAGRAELEAGLAAAREINRQALAPLSLQEQETLRGLLARLI | soluble
